Assay [1] has as its target T1, Human IL-11 (human, UniProt P20809 22-199).
T1 construct: Recombinant human IL-11 (GenScript Cat. No. Z03108-1) or IL-11 secreted by human cells; the mature form is said to have 178 residues; also called recombinant human IL-11; endogenously produced IL-11
T1 sequence: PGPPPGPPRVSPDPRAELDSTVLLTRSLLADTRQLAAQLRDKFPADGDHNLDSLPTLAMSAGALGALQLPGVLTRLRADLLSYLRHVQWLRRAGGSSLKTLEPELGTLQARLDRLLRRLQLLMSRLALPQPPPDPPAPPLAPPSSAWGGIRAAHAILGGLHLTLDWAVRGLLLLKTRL
Briefly: SPR, BIAcore T200; KD from kd/ka. The procedure:
(§1) Real-time binding kinetics of anti-IL-11 antibody BSN-3C6 to human and mouse IL-11 were measured by surface plasmon resonance (SPR) using a BIAcore T200 system (GE Healthcare, USA). The association and dissociation were measured for 250 s and 500 s respectively. The equilibrium binding constant KD was determined by the ratio of the binding rate constants kd/ka.
For orientation: SPR reads the build-up and loss of mass on a sensor chip optically.

Assay [2] concerns the target T2, Mouse IL-11 (mouse, UniProt P47873 22-199, limits assumed).
T2 construct: also called murine IL-11; recombinant murine IL-11
T2 sequence (looked up): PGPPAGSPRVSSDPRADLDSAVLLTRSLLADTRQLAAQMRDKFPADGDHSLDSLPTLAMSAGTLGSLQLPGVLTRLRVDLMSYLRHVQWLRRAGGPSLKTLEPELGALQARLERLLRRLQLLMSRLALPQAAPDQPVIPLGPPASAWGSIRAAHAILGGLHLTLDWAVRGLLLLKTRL
Briefly: SPR, BIAcore T200; KD from kd/ka. The protocol: as §1

Assay [3] deals with T3, FLAG-tagged human IL-11 expressed at the surface of transiently transfected cells (human, UniProt P20809 22-199).
T3 construct: also called IL-11 expressing HEK cells; target cells expressing human IL-11 at their surface; not shown: FLAG tag added to the N-terminus
T3 sequence: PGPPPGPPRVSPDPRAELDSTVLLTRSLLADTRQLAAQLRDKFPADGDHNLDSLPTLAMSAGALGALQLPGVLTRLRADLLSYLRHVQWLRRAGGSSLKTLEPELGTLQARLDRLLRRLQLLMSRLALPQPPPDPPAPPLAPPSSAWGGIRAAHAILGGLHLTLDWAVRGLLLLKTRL
Briefly: flow cytometry, hybridoma supernatant on cells transfected with pB1-IL11-hum.FL. Background: Flow cytometry measures light scatter and fluorescence of single cells or particles in a stream.

For assay [4], the target named is T3, FLAG-tagged human IL-11 expressed at …. Briefly: flow cytometry, hybridoma supernatant on cells transfected with pB1-IL11-hum.FL; relative to the anti-FLAG positive control (100%).
Assay [5] concerns the target T1, Human IL-11. Briefly: SPR, BIAcore T200; sensorgrams with association to 250 s and dissociation to 750 s. The procedure: as §1
In assay [6] the target is T2, Mouse IL-11. Briefly: real-time binding kinetics; the text says SPR (BIAcore T200), the sheet's axis reads Binding [nm]. The procedure: as §1
Assay [7] has as its target T1, Human IL-11. Briefly: told from inhibition of MMP2 secretion by TGFB1-stimulated primary human atrial fibroblasts (FIG. 54A). The protocol:
Primary human atrial fibroblasts were incubated with TGFB1 (5 ng/ml) and varying concentrations of humanised 3C6 clones. MMP2 secretion into the supernatant by human atrial fibroblasts was assessed to estimate the % of inhibition.

B1: BSN-3C6 (antibody, V domains shown)
VH: EVQLQQSGPELVKPGASVKIPCKASGYTFTDYNMDWVKQSHGKSLEWIGDINPHNGGPIYNQKFTGKATLTVDKSSSTAYMELRSLTSEDTAVYYCARGELGHWYFDVWGTGTTVTVSS
VL: DIVLTQSPASLAVSLGQRATISCRASKSVSTSGYSYIHWYQQKPGQPPKLLIYLASNLDSGVPARFSGSGSGTDFTLNIHPVEEEDAATYYCQHSRDLPPTFGGGTKLEIK
notes: Mouse monoclonal antibody from a hybridoma; also called A6; anti-IL-11 antibody clone BSN-3C6
With B1, the figures for the equilibrium dissociation constant (Kd) in the assay with Human IL-11 [1] and with Mouse IL-11 [2] were 4.14 nM and 2.38 nM, respectively. The molecule also displayed a GMFI in assay [3] of 222000. Also, in assay [4], the “binding relative to anti-FLAG positive control” value turned out to be 176%. The koff – broadly, a measure of how fast the partners let go of each other – with Human IL-11 [5] is 0.000635 s⁻¹; with Mouse IL-11 [6], 0.000112 s⁻¹. Besides, the figures for the kon with Human IL-11 [5] and with Mouse IL-11 [6] were 153000 M⁻¹ s⁻¹ and 46900 M⁻¹ s⁻¹, respectively.

B2: BSN-2E1 (antibody, V domains shown)
VH: QVQLQESGPELVKPGASVKIPCKASGYTFTDYNMDWVKQSHGKSLEWIGDINPHNGGPIYNQKFTGKATLTVDKSSSTAYMELRSLTSEDTAVYYCARGELGHWYFDVWGTGTTVTVSS
VL: NIVMTQSPKSMSMSVGERVTLTCKASENVVTYVSWYQQKPEQSPKLLIYGASNRYTGVPDRFTGSGSATDFTLTISSVQAEDLADYHCGQGYSYPYTFGGGTKLEIK
In the case of B2, the GMFI in assay [3] is 206000. Besides, the “binding relative to anti-FLAG positive control” value in assay [4] stood at 164%.

B3: BSN-7D4 (antibody, V domains shown)
VH: EVQLQQSGPELVKPGASVKISCKASGYTFTDYNMDWVKQSQGKRLEWIGDINPNYGGTIYNQKFKGKATLTVDKSSSTAYMELRSLTSEDTTVYYCTRGELGHWYFDVWGTGTTVTVSS
VL: DIVLTQSPPSLTVSLGQRATISCRASKSVSASGYSYMHWYQQKPGQPPKLLIYLTSNLESGVPARFSGSGSGTDFTLNIHPVEEEDAATYYCQHSWDLPPTFGGGTKLEIK
notes: Mouse monoclonal antibody from a hybridoma; also called A12
As for B3, in assay [3], the GMFI came to 221000. Moreover, the “binding relative to anti-FLAG positive control” value in assay [4] was 176%.

B4: BSN-8H11 (antibody, IgG2b, V domains shown)
VH: EVQLQQSGPELVKPGASVKIPCKASGYTFTDYNIDWVKQSHGKSLEWIGDINPNYGGTLYNQKFKGKATLTVDKSSSTAYMELRSLTSEDTAVYYCARGELGHWYFDVWGTGTTVTVSS
VL: DIVLTQSPASLAVSLGQRATISCRASKSVSTSDYSYMHWYQQKPGHPPKLLIYLASNLESGVPARFSGSGSGTDFTLNIHPVEEEDAATYFCQHSRDLPPTFGGGTKLEIK
notes: also called A16
For the molecule B4, the GMFI in assay [3] came to 239000. Further, the “binding relative to anti-FLAG positive control” value in assay [4] was 190%.

B5: BSN-1H2 (antibody, IgG1, V domains shown)
VH: QAQLQQSGAELARPGASVKLSCKASGYTFTSYGITWVKQRTGQGLEWIGDIYPRSGNIYYNENFKGEATLTADKSSSTAYMQLSRLTSEDSAVYFCARSGWEGWFAYWGQGTLVTVSV
VL: DIVMTQSHKFMSTSVGDRVNITCKASQDVGSAVVWYQQKPGQSPKVLIYWASTRHTGVPDRFTGSGSGTDFTLTISNVQSEDLADYFCQQYSSYRTFGGGTKLEIK
notes: also called A1
With B5, the GMFI in assay [3] was found to be 197000. Moreover, in assay [4], the “binding relative to anti-FLAG positive control” value is 157%.

B6: BSN-5B8 (antibody, V domains shown)
VH: QVQLQQSGAELARPGTSVKLSCKASGYTFTSYGISWVKQRTGQGLEWIGEIYPRSSNTYYNEKFKGKATLTADKSSSTAYMELRSLTSEDSADYFCARANWVGYFDVWGTGTTVTVSS
VL: DIVMTQSHKFMSTSVGDRVTITCKASQDVGTAVAWYQQKPGQSPKLLIYWASTRLTGVPDRFTGSGSGTYFTLTINNVQSEDLADYFCQQYSSYRTFGGGTKLEIK
In turn, B6 showed a GMFI in assay [3] of 236000. Also, in assay [4], the “binding relative to anti-FLAG positive control” value was 188%.

B7: BSN-2G6 (antibody, V domains shown)
VH: QVQLQESGPELVKPGASVKIPCKASGYTFTDYNMDWVKQSHGKSLEWIGNINPDNGGTIYNQKFKGKATLTVDKSSSTAYMELRSLTSEDTAVYFCAREGPYGYTWFAYWGQGTLDTVSA
VL: DILLTQSPAILSVSPGERVSFSCRASQSIGTSIHWYQQRTNGSPRLLIKYASESISGIPSRFSGSGSGTDFTLSINSVESEDIADYYCQQSNSWPLTFGAGTKLELK
In turn, B7 gave a GMFI in assay [3] of 28600. The “binding relative to anti-FLAG positive control” value in assay [4] was 23%.

B8: Humanised 3C6 clone VH 2.2/VL 2.2 (antibody, V domains shown)
VH: EVQLVQSGAEVKKPGASVKISCKASGYTFTDYNMDWVKQAPGQRLEWIGDINPHNGGPIYNQKFTGRATLTVDKSASTAYMELSSLRSEDTAVYYCARGELGHWYFDVWGQGTTVTVSS
VL: DIVLTQSPASLALSPGERATLSCRASKSVSTSGYSYIHWYQQKPGQAPRLLIYLASNLDSGVPARFSGSGSGTDFTLTISSLEEEDFATYYCQHSRDLPPTFGQGTKLEIK
notes: also called 3C6 VH2.2/VL2.2
For B8, the binding result in the assay with Human IL-11 [7] is reported as “binds”.

B9: Humanised 3C6 clone VH 2.3/VL 2.3 (antibody, V domains shown)
VH: EVQLVQSGAEVKKPGASVKISCKASGYTFTDYNMDWVRQAPGQRLEWIGDINPHNGGPIYNQKFTGRVTLTVDKSASTAYMELSSLRSEDTAVYYCARGELGHWYFDVWGQGTTVTVSS
VL: DIVLTQSPATLSLSPGERATLSCRASKSVSTSGYSYIHWYQQKPGQAPRLLIYLASNLDSGVPARFSGSGSGTDFTLTISSLEPEDFATYYCQHSRDLPPTFGQGTKLEIK
In the case of B9, the binding result with Human IL-11 [7] is reported as “binds”.

B10: Humanised 3C6 clone VH 2.2/VL 2.1 (antibody, V domains shown)
VH: EVQLVQSGAEVKKPGASVKISCKASGYTFTDYNMDWVKQAPGQRLEWIGDINPHNGGPIYNQKFTGRATLTVDKSASTAYMELSSLRSEDTAVYYCARGELGHWYFDVWGQGTTVTVSS
VL: DIVLTQSPASLALSPGERATLSCRASKSVSTSGYSYIHWYQQKPGQPPRLLIYLASNLDSGVPARFSGSGSGTDFTLNIHPLEEEDFATYYCQHSRDLPPTFGQGTKLEIK
notes: T0003 heads the columns Heavy chain and Light chain, but the entries are variable domains; also called 3C6 VH2.2/VL2.1
Regarding B10, the binding result in the assay with Human IL-11 [7] was “binds”.

B11: Humanised 3C6 clone VH 2.2/VL 2.3 (antibody, V domains shown)
VH: EVQLVQSGAEVKKPGASVKISCKASGYTFTDYNMDWVKQAPGQRLEWIGDINPHNGGPIYNQKFTGRATLTVDKSASTAYMELSSLRSEDTAVYYCARGELGHWYFDVWGQGTTVTVSS
VL: DIVLTQSPATLSLSPGERATLSCRASKSVSTSGYSYIHWYQQKPGQAPRLLIYLASNLDSGVPARFSGSGSGTDFTLTISSLEPEDFATYYCQHSRDLPPTFGQGTKLEIK
As for B11, the binding result with Human IL-11 [7] is “binds”.

B12: Humanised 3C6 clone VH 2.2/VL 2.4 (antibody, V domains shown)
VH: EVQLVQSGAEVKKPGASVKISCKASGYTFTDYNMDWVKQAPGQRLEWIGDINPHNGGPIYNQKFTGRATLTVDKSASTAYMELSSLRSEDTAVYYCARGELGHWYFDVWGQGTTVTVSS
VL: EIVLTQSPATLSLSPGERATLSCRASKSVSTSGYSYIHWYQQKPGQAPRLLIYLASNLDSGVPARFSGSGSGTDFTLTISSLEPEDFATYYCQHSRDLPPTFGQGTKLEIK
Consider B12, for which, in the assay with Human IL-11 [7], the binding result was “binds”.

B13: Humanised 3C6 clone VH 2.3/VL 2.2 (antibody, V domains shown)
VH: EVQLVQSGAEVKKPGASVKISCKASGYTFTDYNMDWVRQAPGQRLEWIGDINPHNGGPIYNQKFTGRVTLTVDKSASTAYMELSSLRSEDTAVYYCARGELGHWYFDVWGQGTTVTVSS
VL: DIVLTQSPASLALSPGERATLSCRASKSVSTSGYSYIHWYQQKPGQAPRLLIYLASNLDSGVPARFSGSGSGTDFTLTISSLEEEDFATYYCQHSRDLPPTFGQGTKLEIK
Regarding B13, the binding result in the assay with Human IL-11 [7] is recorded as “binds”.

The record behind these values is patent publication US20210230266A1 (SINGAPORE HEALTH SERVICES PTE, published 2021).
